B1: H2-Kb / B2 (parent)
chain 1: GEQVEQRPPHLSVREGDSAVIICTYTDPNSYYFFWYKQEPGAGLQLLMKVFSSTEINEGQGFTVLLNKKDKQLSLNLTAAHPGDSAVYFCAVSQMSNYNVLYFGSGTKLTVEP
chain 2: EAAVTQSPRNKVAVTGGKVTLSCNQTNNHNNMYWYRQDTGHGLRLIHYSYGAGSTEKGDIPDGYKASRPSQENFSLILELATPSQTSVYFCASGTGGSGQLYFGEGSKLTVL
chain 3: not shown
chain 4: IQKTPQIQVYSRHPPENGKPNILNCYVTQFHPPHIEIQMLKNGKKIPKVEMSDMSFSKDWSFYILAHTEFTPTETDTYACRVKHDSMAEPKTVYWDRDM
chain 5: SIINFEKL
B2: H2-Kb / G2 (parent)
chain 1: GEQVEQRPPHLSVREGDSAVIICTYTDPNSYYFFWYKQEPGAGLQLLMKVFSSTEINEGQGFTVLLNKKDKQLSLNLTAAHPGDSAVYFCAVRTNQGGRALIFGTGTTVSVSP
chain 2: EAAVTQSPRSKVAVTGGKVTLSCHQTNNHDYMYWYRQDTGHGLRLIHYSYVADSTEKGDIPDGYKASRPSQENFSLILELASLSQTAVYFCASSGTDTEVFFGKGTRLTVV
chain 3: not shown
chain 4: B1 chain 4
chain 5: SIINFEKL

Variants of: B1
Experiment: % of reporter cells activated (NFAT-GFP), raw
Conditions: with B2; scale: % of reporter cells activated
Note: test concentration or dose not given here.

Ratio to parent of substitutions, site by site:
chain 5 F5: Q 1.75 | D 1.06 | A 1.27 | L 3.33
chain 5 K7: E 1.49 | T 1.99 | R 1.97 | Q 1.96 | Y 2.46 | M 2.53 | H 4.08 | D 3.15 | I 1.95 | P 3.7 | W 7.51 | C 2.46 | V 12.4 | S 3.71 | A 4.46 | G 7.31 | L 2.05 | F 4.64 | N 1.84
chain 5 I2: Y 0.87 | P 0.892 | R 1.36 | S 0.714 | M 2.66 | G 0.876 | Q 0.573 | N 0.589 | T 1.68 | D 1 | A 1.58 | H 0.93 | L 4.69 | C 1.2 | F 2.06 | W 0.768 | V 1.91 | E 0.654 | K 1.18
chain 5 E6: F 0.584 | C 0.811 | P 0.741 | T 0.746 | I 0.67 | N 0.535 | Y 0.697 | K 1.8 | A 0.557 | R 0.573 | S 0.751 | M 0.946 | H 0.497 | L 0.53 | Q 0.724 | G 1.06 | V 0.422 | D 0.6 | W 0.6
chain 5 L8: K 1.17 | H 2.32 | I 0.708 | F 8.42 | D 0.914 | G 0.849 | E 0.551 | A 8.62 | C 2.06 | M 3.42
chain 5 I3: W 0.578 | Q 0.524 | M 0.659 | N 0.389 | F 0.324 | A 0.741 | S 0.4 | R 0.335 | G 0.568 | K 0.427 | Y 0.476 | H 0.676 | L 0.724 | P 0.692 | C 0.795 | V 0.449 | T 0.4 | E 0.432 | D 0.481

Variants of: B2
Experiment: % of reporter cells activated (NFAT-GFP), raw
Conditions: with G2; scale: % of reporter cells activated

Ratio to parent of substitutions, site by site:
chain 5 K7: Y 1.22 | A 1.58 | S 0.824 | D 1.29 | C 1.88 | T 1.27 | G 0.936 | P 1.46 | W 1.34 | L 2.32 | R 0.664 | H 1.63 | N 1.18 | E 1.46 | F 1.94 | I 1.83 | Q 1.12 | M 1.34 | V 1.13
chain 5 I3: Y 0.904
chain 5 S1: T 1.07 | P 1.42 | Q 1.22 | I 1.45 | F 1.63 | L 1.73 | D 1.62 | A 1.7 | V 0.976 | C 1.31 | W 1.34 | N 1.55 | H 1.26 | M 1.6 | E 1.54 | R 1.02 | G 1.47 | Y 1.26 | K 1.58
chain 5 N4: E 0.928 | C 1.02 | M 1.09 | K 1.74 | D 1.4 | G 0.976 | Q 1.18 | R 0.952 | L 1.54 | A 1.13 | S 1.5 | W 2.17 | Y 0.936 | T 0.904 | P 1.34 | V 1.26 | H 1.38 | I 1.13 | F 1.32
chain 5 L8: D 0.904 | Q 1.05 | R 1.45 | M 2.01 | T 0.944 | E 0.696 | I 1.04 | C 1.06 | V 1.32 | H 1.78 | P 1.24 | S 1.15 | Y 0.744 | G 1.54 | N 1.54 | A 1.06 | W 0.768 | K 1.4 | F 1.09

From PMC11480844
